Results as given in the supplement of paper PMC9170038.

System: MS2 coat protein
Experiment: apparent KD of MS2 coat protein; higher = weaker reporter binding
Settings: Eterna round: R107
Summary of the method: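 Binding of SNAP-549-labelled MS2 coat protein was measured on designed RNA switches transcribed on-chip from Illumina sequencing clusters. The protein rose in twofold steps from 0.7 or 1.5 nM to 3 µM, with 0.8–1.5 h per step early on and 10–20 min per step later, in 100 mM Tris-HCl pH 7.5, 80 mM KCl, 4 mM MgCl2, without or with constant ligand. Each design's apparent KD is the median of fits to its normalised cluster binding curves.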

[1] = input ligand: theophylline 20 uM
[2] = input ligand: tryptophan 2.4 mM
[3] = input ligand: theophylline 2 mM

| Sequence | apparent KD of MS2 coat protein (input ligand: arginine 13.2 mM) | apparent KD of MS2 coat protein [1] | apparent KD of MS2 coat protein [2] | apparent KD of MS2 coat protein [3] | apparent KD of MS2 coat protein (input ligand: none) |
| --- | --- | --- | --- | --- | --- |
| GCACCAGGUACGGAUACCAGCUGCUCGAGAUACAUGAGGAUCACCCAUGUGACCUGGUUUAGCCCUUGGCAGCUGUACCUGGUGC [#15 Same State - Theophylline B] | 16.4 nM | 15.3 nM | 17.2 nM |  |  |
| GCAUCCUAGUCGGCCGCCACUGCAACAUGAGGAUCACCCAUGUCUGUAUGUGAUCCAUGCAGUAGCAGGACCGGGACUAGGAUGC [(T1)-(M1)-(M2)-(T)''-(M)'-(T)'-(T2)_Design3_2/18/17] | 237 nM | 467 nM |  | 833 nM |  |
| GCAUCCUAGUCGGCCGCCACUGCAAUUGUAAUACUGCUACAUGAACAUGAGGAUCACCCAUGUAGCAGGACCGGGACUAGGAUGC [(Trp1)-(TM)''-(TM)'-(Ms2)-(Trp2)_Design9] | 80.4 nM | 185 nM |  | 222 nM |  |
| GCAUCCUAGUCGGCCGCCACUGCAGUAGCACCUGCUACAUGGAAACAUGAGGAUCACCCAUGUAGCAGGACCGGGACUAGGAUGC [(Trp1)-(TM)''-(TM)'-(Ms2)-(Trp2)_Design8] | 44.3 nM | 733 nM | 236 nM | 909 nM | 276 nM |
| GCCAUCGGCGGAAGCCGAUGGUAUACGGAAGGAGCGCACGAAAGUGCAGGUAGGUCGCUGAACAUGAGGAUCACCCAUGUAAUAA [#28 Same State - Arginine A] | 17.6 nM | 36.4 nM | 20.3 nM | 24.1 nM | 18.8 nM |
| GCCUCCAGCCGAAGGAGCGCUAGAAGGUGACAUGAGGAUCACCCAUGUGUGUGAUGUGGCUAGCAGGUAGGUCGCGGAGGAGGUU [Exclusion - Arginine B (Freestyle 20)] | 62.7 nM | 133 nM | 89.8 nM | 120 nM | 68.5 nM |
| GCGAUGGAGCGAAGGAGCGGCUAUCACCGACAAAACAUGAGGAUCACCCAUGUUGGCAGUGGCCAGGUAGGUCGCGCUCCAUCGC [EAB NP+V+V2 #8] | 8.17 nM | 12.3 nM | 8.57 nM | 10.8 nM | 11.4 nM |
| GCUAGGUCAUCGGCCGCCACUAACGAAGGUUCGAACAUGAGGAUCACCCAUGUGCCACAUGCGCAUAGGACCGGGAUGACCUAGC [SSTB NP+V+V2 #7 +-Same Structure] | 13.8 nM | 26.2 nM | 11.4 nM | 20.8 nM | 17.3 nM |
| GCUAGGUCAUCGGCCGCCACUAACGAUGGCUCCAACAUGAGGAUCACCCAUGUGCCACAUGCGCAUAGGACCGGGAUGACCUAGC [SSTB NP+V+V2 #3] | 11.3 nM | 16.2 nM |  | 14.1 nM |  |
| GCUGCCAUACGAAGGAGCGCUGCUGCGAUGUGGCGAACAUGAGGAUCACCCAUGUGGCAGCAGCAGGUAGGUCGCGUAUGGCAGC [#01 Exclusion - Arginine B] | 131 nM | 489 nM | 198 nM | 259 nM | 144 nM |
| GCUGUAAGUGCAGAUACCAGCAGGUGAUAUUUCUAAUGACAUGAGGAUCACCCAUGUAACUGCCCUUGGCAGCUGCACUUACAGC [SSTHB #8] | 48.5 nM | 32.1 nM | 59.6 nM |  |  |
| GCUUGGGUGGCCCAGCCCUGGCAGGGCGAUACCAGCACGGUAACGUGCCCUUGGCAGCGCACAUGAGGAUCACCCAUGUGGUGCG [#1 Exclusion - Theophylline A Attempt #27 (HarryS)] | 52.8 nM | 161 nM | 112 nM |  |  |
| GCUUGGGUGGCCCAGCCCUGGCAGGGCGAUACCAGCCCGGUAACGGGCCCUUGGCAGCGCACAUGAGGAUCACCCAUGUGGUGCG [#1 Exclusion - Theophylline A Attempt #28 (HarryS)] | 22.4 nM | 60.3 nM | 44.9 nM | 85 nM | 52.4 nM |
| GGACUAACCAGAAGGAGCGACACGCAGAAACUGCAAAAUCCUCCGCACGAGGAUCACCCGUGUCAGGUAGGUCGCUGGUUAGUCG | 38.6 nM | 63.6 nM | 49.7 nM | 60.2 nM | 54.3 nM |
| GGACUAACCAGAAGGAGCGACACGCAGAAACUGCAAAUUCCUCCGCACGAGGAUCACCCGUGUCAGGUAGGUCGCUGGUUAGUCG [ArgBX 28] | 22.9 nM | 33.2 nM | 22.4 nM | 23.5 nM | 19.4 nM |
| GGACUAACCAGAAGGAGCGGCACAAAGCAGAAACUGCAUCCUCCGCACGAGGAUCACCCGUGUCAGGUAGGUCGCUGGUUAGUCG [ArgBX 28] | 46.2 nM | 70.6 nM | 62 nM | 69.5 nM | 57.5 nM |
| GGACUCGUCACGGCCGCCACUGCGGUGGUGUGACAUGAGGAUCACCCAUGUUGUCAUGCGGCCCUUAGGACCGGGUGUCGCUUCC [#1 Exclusion - Tryptophan B Attempt #24 (HarryS)] | 124 nM | 221 nM |  | 336 nM |  |
| GGAGCUACGUCGGCCGCCACUAGCGGUUAUUACGUGUACAUGAGGAUCACCCAUGUAAUAUGGCUUAGGACCGGGACGUAGCUCC [Wolverine] | 21 nM | 29 nM |  | 27.8 nM |  |
| GGAUAGAUAGGAGAUACCAGACACAUUAACAUGAGGAUCACCCAUGUGUCUGCACUAAGUGUCCCUUGGCAGCUCGGAGAUCUGA [Same State - Theophylline B] | 34.2 nM | 44.2 nM | 31.9 nM | 30.6 nM | 45.9 nM |
| GGAUAGGACACGGCCGCCACUAGCUAGGAUACUAGCAACAUUUCCUCACUUGAGGAUCACCCAAGUAGGACCGGGUGUCCUAUCG | 95.2 nM | 250 nM | 182 nM | 160 nM | 162 nM |
| GGAUAGGACACGGCCGCCACUGCCUAGGAUACUAGAAACAUUUCCUCACAUGAGGAUCACCCAUGUAGGACCGGGUGUCCUAUCG | 74.9 nM | 161 nM |  | 121 nM |  |
| GGAUAGGACAGAAGGAGCGACAUCGCCGAAAGGCUGGUAAGAUCACAUGAGGAUCACCCAUGUCAGGUAGGUCGCUGUCCUAUCG [ArgXB 11 #Zipper #MS2Left #StaticStem #Blueprint] | 92.2 nM | 360 nM | 308 nM | 627 nM | 283 nM |
| GGAUAGGACAGAAGGAGCGACAUGAGGAUCACCCAUGUCUACCACGUCGAAAGACGCUCAUGUCAGGUAGGUCGCUGUCCUAUCG [ArgXB 9 #StaticStem #MS2LeftOffAptamer] | 101 nM | 191 nM | 113 nM | 183 nM | 153 nM |
| GGAUAGGACAGAAGGAGCGACAUGAGGAUCACCCAUGUCUACUAGGACGAAAGUCCGUCAUGUCAGGUAGGUCGCUGUCCUAUCG [#29 Exclusion - Arginine B] | 68.8 nM | 103 nM | 81.2 nM | 114 nM | 88.7 nM |
| GGAUAGGACAGAAGGAGCGACAUGCGACGAAAGUCGAAAAGAUCACAUGAGGAUCACCCAUGUCAGGUAGGUCGCUGUCCUAUCG [ArgXB 10 #Zipper #MS2Left #StaticStem #Blueprint] | 119 nM | 115 nM | 89.9 nM | 154 nM | 127 nM |
| GGAUAGGACAGAAGGAGCGACGUGAGGCGAAAGCCAAUCCUUCAACAUGAGGAUCACCCAUGUCAGGUAGGUCGCUGUCCUAUCG [ArgBX 5] | 19.5 nM | 26.4 nM | 22.5 nM | 22.3 nM | 20.9 nM |
| GGAUUACGAAAGUAGUCCAUCAAGUUCGAGCGAGGACCGGUACGGCCGCCACUCGAACAUGAGGAUCACCCAUGUAGCGAAAGCU [Tryptophan A 21] | 116 nM | 304 nM |  | 371 nM |  |
